From patent publication US20260285942 (published 2026)
Numbering of substitutions follows the chain as printed. Blank lines part the entries; values can stand above or below the binder they belong to.

Assays:
human TfR ECD = human TfR ECD (human); assay: SPR
[1] = biological target: T1, cynomolgus monkey TfR ECD (Macaca fascicularis); assay: SPR
T1 chain: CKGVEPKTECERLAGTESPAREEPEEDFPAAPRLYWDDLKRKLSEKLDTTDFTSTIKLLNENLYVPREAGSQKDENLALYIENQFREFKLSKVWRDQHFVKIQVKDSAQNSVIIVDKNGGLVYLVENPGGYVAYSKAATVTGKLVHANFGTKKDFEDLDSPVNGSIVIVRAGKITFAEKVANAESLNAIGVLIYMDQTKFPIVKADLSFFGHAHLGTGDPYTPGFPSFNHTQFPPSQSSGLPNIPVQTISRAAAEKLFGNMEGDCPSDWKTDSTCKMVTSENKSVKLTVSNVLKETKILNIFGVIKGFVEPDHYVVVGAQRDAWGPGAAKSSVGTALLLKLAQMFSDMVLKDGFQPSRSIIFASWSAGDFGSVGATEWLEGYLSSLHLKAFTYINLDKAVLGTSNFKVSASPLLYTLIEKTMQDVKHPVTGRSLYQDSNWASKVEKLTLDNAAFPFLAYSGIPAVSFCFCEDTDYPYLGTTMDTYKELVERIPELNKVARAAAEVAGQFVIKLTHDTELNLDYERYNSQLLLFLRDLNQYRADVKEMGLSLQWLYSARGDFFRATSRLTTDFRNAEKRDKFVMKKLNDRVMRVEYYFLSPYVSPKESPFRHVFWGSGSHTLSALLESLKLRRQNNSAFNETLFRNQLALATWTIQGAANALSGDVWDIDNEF

- Kd (human TfR ECD): 16.5 nM
- Kd [1]: 17.6 nM
B1: hTfR affinity peptide 1 (designed binder)
chain: QVQLVESGGGLVHPGGSLRLSCVASGTSFSLNVVTWYRQALGKQREWVATINQSEAPTYADSVKGRFTISRDGAKNTVYLQMNSLVTEDTALYYCYDRYNEIRGQGTQVTVSS

- Kd (human TfR ECD): 16.5 nM
- Kd [1]: 17.6 nM
B2: hTfR affinity peptide 2 (designed binder)
chain: B1 chain with R19S, V23A, L31F, V33T, Q53G, E55G, Q81L
